Data taken from patent publication US20150045310A1 (published 2015).
Where no end group is shown, it is not given here. eCPX = enhanced circularly permuted OmpX display scaffold; linker = not defined here

T1: Mcl-1 (biotinylated pro-survival Bcl-2 family protein) (UniProt Q07820 171-327, biotinylated (co-expressed E. coli biotin ligase BirA))
T1 chain: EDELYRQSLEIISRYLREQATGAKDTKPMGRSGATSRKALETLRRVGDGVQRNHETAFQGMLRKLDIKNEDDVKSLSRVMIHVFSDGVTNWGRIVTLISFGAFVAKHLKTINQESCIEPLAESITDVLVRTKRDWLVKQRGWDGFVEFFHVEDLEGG

T2: A1 (biotinylated pro-survival Bcl-2 family protein) (UniProt Q16548 1-152, biotinylated (co-expressed E. coli biotin ligase BirA))
T2 chain: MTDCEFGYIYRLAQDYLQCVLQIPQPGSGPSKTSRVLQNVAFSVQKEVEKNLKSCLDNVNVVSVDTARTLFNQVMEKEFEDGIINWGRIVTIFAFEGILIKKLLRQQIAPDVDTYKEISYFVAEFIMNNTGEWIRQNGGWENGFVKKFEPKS

B1: Bim BH3 14-mer variant M2-2 displayed on eCPX (peptide)
peptide: WVAQLLRRIGDEVN-{linker-eCPX}
modifications: reading uncertain; also: printed as Trp-Val-Ala-Gln-Leu-Leu-Arg-Arg-Ile-Gly-Asp-Glu-Val-Asn

Columns and labels:
[1] = molecular target: T1, Mcl-1 (biotinylated pro-survival Bcl-2 …); assay: cell surface display FACS titration; apparent Kd
[2] = molecular target: Bcl-2 (biotinylated pro-survival Bcl-2 family protein) (UniProt P10415 1-217, biotinylated (co-expressed E. coli biotin ligase BirA)); assay: cell surface display FACS titration; apparent Kd
Sequence of Bcl-2 (biotinylated pro-survival Bcl-2 family protein) (P10415 1-217): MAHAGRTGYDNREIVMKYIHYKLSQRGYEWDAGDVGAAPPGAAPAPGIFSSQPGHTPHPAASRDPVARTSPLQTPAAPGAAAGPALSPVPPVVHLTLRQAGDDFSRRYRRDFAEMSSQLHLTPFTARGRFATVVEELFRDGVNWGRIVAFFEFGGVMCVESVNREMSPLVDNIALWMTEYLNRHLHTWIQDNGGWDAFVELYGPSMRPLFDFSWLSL

[3] = molecular target: T2, A1 (biotinylated pro-survival Bcl-2 …); assay: flow cytometry, bacterial surface display (eCPX); apparent Kd; FIG. 7AH

| Binder | Kd [1] [nM] | other results |
| --- | --- | --- |
| WIAQLLRRIGDEFN [Bim BH3 14-mer E151L displayed on eCPX] | 17.8 | – |
| WIAQTLRRIGDEFN [Bim BH3 14-mer E151T displayed on eCPX] | 33.2 | – |
| B1 | – | Kd [2]: > 10000 nM |
| WLAQLLRRYGDEFN (also: displayed as fusion to eCPX scaffold (letters not given here)) [Bim BH3 14-mer variant X2-8 displayed on eCPX] | – | Kd [3]: 5.8 nM |
